# According to US20250339531A1, “DUX4 POLYPEPTIDES AND NUCLEIC ACIDS FOR TREATING INFLAMMATORY AND AUTOIMMUNE CONDITIONS” (Fred Hutchinson Cancer Center, priority 2021, published 2025):
# System: proteins that co-immunoprecipitated with DUX4-CTD constructs expressed in MB135 myoblasts
# Assay: LC-MS of proteins co-immunoprecipitated with DUX4-CTD (Table 1) and western validation
# Format: binding, human
# Parameters: key to 4. mL1dL2 + Dox + IFNG / 4. + IFNG mix / 4. longCTD + Dox + IFNG / 3. + IFNg + Dox longCTD / 3. + Dox longCTD / 3. + IFNG longCTD: peptide-spectrum matches (PSMs) per protein
# Conditions: kind of count not given; for 4. + IFNG mix: LC-MS value per protein co-immunoprecipitated from MB135 myoblasts, + IFNG mix sample (no Dox); for 4. mL1dL2 + Dox + IFNG: LC-MS value per protein co-immunoprecipitated with DUX4-CTD construct mL1dL2 in MB135 myoblasts
# How it was run: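 FLAG-tagged DUX4-CTD expressed in doxycycline-induced MB135 myoblasts, some also IFNG-treated; nuclear lysates in pH 7.4 NP-40 IP buffer were pre-cleared, then anti-FLAG immunoprecipitated 3 h at 4 °C. For LC-MS, FLAG-peptide elution, in-gel trypsin digest, Orbitrap analysis; proteins with ≥2 PSMs in both experiments categorised and ranked by total PSMs.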
Molecule,4. + IFNG mix,4. mL1dL2 + Dox + IFNG
SLC3A2 (protein) SQDTEVDMKEVELNELEPEKQPMNAASGAAMSLAGAEKNGLVKIKVAEDEAEAAAAAKFTGLSKEELLKVAGSPGWVRTRWALLLLFWLGWLGMLAGAVVIIVRAPRCRELPAQKWWHTGALYRIGDLQAFQGHGAGNLAGLKGRLDYLSSLKVKGLVLGPIHKNQKDDVAQTDLLQIDPNFGSKEDFDSLLQSAKKKSIRVILDLTPNYRGENSWFSTQVDTVATKVKDALEFWLQAGVDGFQVRDIENLKDASSFLAEWQNITKGFSEDRLLIAGTNSSDLQQILSLLESNKDLLLTSSYLSDSGSTGEHTKSLVTQYLNATGNRWCSWSLSQARLLTSFLPAQLLRLYQLMLFTLPGTPVFSYGDEIGLDAAALPGQPMEAPVMLWDESSFPDIPGAVSANMTVKGQSEDPGSLLSLFRRLSDQRSKERSLLHGDFHAFSAGPGLFSYIRHWDQNERFLVVLNFGDVGLSAGLQASDLPASASLPAKADLLLSTQPGREEGSPLELERLKLEPHEGLLLRFPYAA,2,4
AHCYL1 (protein) SMPDAMPLPGVGEELKQAKEIEDAEKYSFMATVTKAPKKQIQFADDMQEFTKFPTKTGRRSLSRSISQSSTDSYSSAASYTDSSDDEVSPREKQQTNSKGSSNFCVKNIKQAEFGRREIEIAEQDMSALISLRKRAQGEKPLAGAKIVGCTHITAQTAVLIETLCALGAQCRWSACNIYSTQNEVAAALAEAGVAVFAWKGESEDDFWWCIDRCVNMDGWQANMILDDGGDLTHWVYKKYPNVFKKIRGIVEESVTGVHRLYQLSKAGKLCVPAMNVNDSVTKQKFDNLYCCRESILDGLKRTTDVMFGGKQVVVCGYGEVGKGCCAALKALGAIVYITEIDPICALQACMDGFRVVKLNEVIRQVDVVITCTGNKNVVTREHLDRMKNSCIVCNMGHSNTEIDVTSLRTPELTWERVRSQVDHVIWPDGKRVVLLAEGRLLNLSCSTVPTFVLSITATTQALALIELYNAPEGRYKQDVYLLPKKMDEYVASLHLPSFDAHLTELTDDQAKYLGLNKNGPFKPNYYRY,,1
JSRP1 (protein) MSMTTRAWEELDGGLGSCQALEDHSALAETQEDRASATPRLADSGSVPHDSQVAEGPSVDTRPKKMEKEPAARGTPGTGKERLKAGASPRSVPARKKAQTAPPLQPPPPPPALSEELPWGDLSLNKCLVLASLVALLGSAFQLCRDAVPGEAALQARVPEPWVPPSSAPREPSSPLPKFEAQAPPSAPPAPRAEAEVRPKIPGSREAAENDEEEPGEATGEAVREDRVTLADRGPKERPRREGKPRKEKPRKEERPKKERPRKEERPRAAREPREALPQRWESREGGHRPWARDSRDAEPRKKQAWVSPRRPDEEQRPGSRQKLRAGKGRD,,1
RBBP7 (protein) ASKEMFEDTVEERVINEEYKIWKKNTPFLYDLVMTHALQWPSLTVQWLPEVTKPEGKDYALHWLVLGTHTSDEQNHLVVARVHIPNDDAQFDASHCDSDKGEFGGFGSVTGKIECEIKINHEGEVNRARYMPQNPHIIATKTPSSDVLVFDYTKHPAKPDPSGECNPDLRLRGHQKEGYGLSWNSNLSGHLLSASDDHTVCLWDINAGPKEGKIVDAKAIFTGHSAVVEDVAWHLLHESLFGSVADDQKLMIWDTRSNTTSKPSHLVDAHTAEVNCLSFNPYSEFILATGSADKTVALWDLRNLKLKLHTFESHKDEIFQVHWSPHNETILASSGTDRRLNVWDLSKIGEEQSAEDAEDGPPELLFIHGGHTAKISDFSWNPNEPWVICSVSEDNIMQIWQMAENIYNDEESDVTTSELEGQGS,,16
ATP5F1A (protein) QKTGTAEMSSILEERILGADTSVDLEETGRVLSIGDGIARVHGLRNVQAEEMVEFSSGLKGMSLNLEPDNVGVVVFGNDKLIKEGDIVKRTGAIVDVPVGEELLGRVVDALGNAIDGKGPIGSKTRRRVGLKAPGIIPRISVREPMQTGIKAVDSLVPIGRGQRELIIGDRQTGKTSIAIDTIINQKRFNDGSDEKKKLYCIYVAIGQKRSTVAQLVKRLTDADAMKYTIVVSATASDAAPLQYLAPYSGCSMGEYFRDNGKHALIIYDDLSKQAVAYRQMSLLLRRPPGREAYPGDVFYLHSRLLERAAKMNDAFGGGSLTALPVIETQAGDVSAYIPTNVISITDGQIFLETELFYKGIRPAINVGLSVSRVGSAAQTRAMKQVAGTMKLELAQYREVAAFAQFGSDLDAATQQLLSRGVRLTELLKQGQYSPMAIEEQVAVIYAGVRGYLDKLEPSKITKFENAFLSHVVSQHQALLGTIRADGKISEQSDAKLKEIVTNFLAGFEA,6,4
"IGKV2-40 (protein, UniProt A0A087WW87 20-121, looked up) Immunoglobulin kappa variable …: EDIVMTQTPLSLPVTPGEPASISCRSSQSLLDSDDGNTYLDWYLQKPGQSPQLLIYTLSYRASGVPDRFSGSGSGTDFTLKISRVEAEDVGVYYCMQRIEFP",5,1
SLC25A3 (protein) AVEEQYSCDYGSGRFFILCGLGGIISCGTTHTALVPLDLVKCRMQVDPQKYKGIFNGFSVTLKEDGVRGLAKGWAPTFLGYSMQGLCKFGFYEVFKVLYSNMLGEENTYLWRTSLYLAASASAEFFADIALAPMEAAKVRIQTQPGYANTLRDAAPKMYKEEGLKAFYKGVAPLWMRQIPYTMMKFACFERTVEALYKFVVPKPRSECSKPEQLVVTFVAGYIAGVFCAIVSHPADSVVSVLNKEKGSSASLVLKRLGFKGVWKGLFARIIMIGTLTALQWFIYDSVKVYFRLPRPPPPEMPESLKKKLGLTQ,3,2
PLOD2 (protein) ADSEKPSSIPTDKLLVITVATKESDGFHRFMQSAKYFNYTVKVLGQGEEWRGGDGINSIGGGQKVRLMKEVMEHYADQDDLVVMFTECFDVIFAGGPEEVLKKFQKANHKVVFAADGILWPDKRLADKYPVVHIGKRYLNSGGFIGYAPYVNRIVQQWNLQDNDDDQLFYTKVYIDPLKREAINITLDHKCKIFQTLNGAVDEVVLKFENGKARAKNTFYETLPVAINGNGPTKILLNYFGNYVPNSWTQDNGCTLCEFDTVDLSAVDVHPNVSIGVFIEQPTPFLPRFLDILLTLDYPKEALKLFIHNKEVYHEKDIKVFFDKAKHEIKTIKIVGPEENLSQAEARNMGMDFCRQDEKCDYYFSVDADVVLTNPRTLKILIEQNRKIIAPLVTRHGKLWSNFWGALSPDGYYARSEDYVDIVQGNRVGVWNVPYMANVYLIKGKTLRSEMNERNYFVRDKLDPDMALCRNAREMGVFMYISNRHEFGRLLSTANYNTSHYNNDLWQIFENPVDWKEKYINRDYSKIFTENIVEQPCPDVFWFPIFSEKACDELVEEMEHYGKWSGGKHHDSRISGGYENVPTDDIHMKQVDLENVWLHFIREFIAPVTLKVFAGYYTKGFALLNFVVKYSPERQRSLRPHHDASTFTINIALNNVGEDFQGGGCKFLRYNCSIESPRKGWSFMHPGRLTHLHEGLPVKNGTRYIAVSFIDP,7,8
PLOD1 (protein) KGDAKPEDNLLVLTVATKETEGFRRFKRSAQFFNYKIQALGLGEDWNVEKGTSAGGGQKVRLLKKALEKHADKEDLVILFADSYDVLFASGPRELLKKFRQARSQVVFSAEELIYPDRRLETKYPVVSDGKRFLGSGGFIGYAPNLSKLVAEWEGQDSDSDQLFYTKIFLDPEKREQINITLDHRCRIFQNLDGALDEVVLKFEMGHVRARNLAYDTLPVLIHGNGPTKLQLNYLGNYIPRFWTFETGCTVCDEGLRSLKGIGDEALPTVLVGVFIEQPTPFVSLFFQRLLRLHYPQKHMRLFIHNHEQHHKAQVEEFLAQHGSEYQSVKLVGPEVRMANADARNMGADLCRQDRSCTYYFSVDADVALTEPNSLRLLIQQNKNVIAPLMTRHGRLWSNFWGALSADGYYARSEDYVDIVQGRRVGVWNVPYISNIYLIKGSALRGELQSSDLFHHSKLDPDMAFCANIRQQDVFMFLTNRHTLGHLLSLDSYRTTHLHNDLWEVFSNPEDWKEKYIHQNYTKALAGKLVETPCPDVYWFPIFTEVACDELVEEMEHFGQWSLGNNKDNRIQGGYENVPTIDIHMNQIGFEREWHKFLLEYIAPMTEKLYPGYYTRAQFDLAFVVRYKPDEQPSLMPHHDASTFTINIALNRVGVDYEGGGCRFLRYNCSIRAPRKGWTLMHPGRLTHYHEGLPTTRGTRYIAVSFVDP,,2
NCEH1 (protein) MRSSCVLLTALVALAAYYVYIPLPGSVSDPWKLMLLDATFRGAQQVSNLIHYLGLSHHLLALNFIIVSFGKKSAWSSAQVKVTDTDFDGVEVRVFEGPPKPEEPLKRSVVYIHGGGWALASAKIRYYDELCTAMAEELNAVIVSIEYRLVPKVYFPEQIHDVVRATKYFLKPEVLQKYMVDPGRICISGDSAGGNLAAALGQQFTQDASLKNKLKLQALIYPVLQALDFNTPSYQQNVNTPILPRYVMVKYWVDYFKGNYDFVQAMIVNNHTSLDVEEAAAVRARLNWTSLLPASFTKNYKPVVQTTGNARIVQELPQLLDARSAPLIADQAVLQLLPKTYILTCEHDVLRDDGIMYAKRLESAGVEVTLDHFEDGFHGCMIFTSWPTNFSVGIRTRNSYIKWLDQNL,,1
